From patent US20260183363A1, “INHIBITION OF LUTEINIZING HORMONE (LH) ACTION AS TREATMENT OF PERIMENOPAUSAL AND POSTMENOPAUSAL SYMPTOMS AND COMPLICATIONS” (RIGSHOSPITALET, priority 2022, published 2026)
Non-standard residues stand in square brackets, D forms with d. Residues, ends and D or L forms follow the SMILES beside them. dPhe(4-Cl) = N[C@H](Cc1ccc(Cl)cc1)C(=O)O; d2Nal = N[C@H](Cc1ccc2ccccc2c1)C(=O)O; dCit = NC(=O)NCCC[C@@H](N)C(=O)O; d3Pal = N[C@H](Cc1cccnc1)C(=O)O

Legend:
[1] = tested on: bilateral ovariectomized female C57BL/6JRj mice; assay: Menopausal mouse model: temperature and tissue weights; format: in vivo; conditions: for Body weight compared with vehicle: after 10 days treatment
Procedure: Bilateral ovariectomized female C57BL/6JRj mice, 8 weeks of age, were included in the study and administered with IgG2b (control) or 1 of 3 test articles (LH-β ab, LHCGR ab or GnRH antagonist) either at study day 1, or once a day for 9 days. The control/vehicle treatment was a non-specific antibody (IgG2b). The route of administration was through intraperitoneal (i.p.) injection. The study had four groups in total (Table 3); group 1 (female, n=6) was treated i.p. with IgG2b (control) on study day 1 and day 5, group 2 (female, n=3) was treated i.p. with LH-β ab at study day 1, group 3 (female, n=3) was treated i.p. with LHCGR ab at study day 1, group 4 (female, n=3) was treated i.p. with GnRH antagonist once a day (q.d.) for 9 days. Blood for preparation of serum was collected prior to dosing on study day 1 and at termination on study day 10. Core temperature and skin temperature were determined in female mice pre-dose on study day 1, at study day 5 and at termination on study day 10.
Seventeen (17) ovariectomized C57BL/6JRj female mice 8 weeks of age were supplied by Janvier Labs France. The ovaries from the female mice were surgically removed by the supplier. The mice were caged in European IVC cages type IIL. Temperature was 20° C. to 24° C. and the light cycle 12-hour dark and 12-hour light (lights on 06.00). The diet was Altromin 1324, produced by Altromin, Im Seelenkamp 20, 32791 Lage, Germany.
Temperature measurements were done using rectal thermometer (thermometer BIO-TK8851 combined with rectal probe BIO-BRET-3, both from BIOSEB Lab instruments) for core temperature and infrared (153-IRB Infrared Thermometer, BIOSEB Lab instruments) for skin temperature. The core temperature was recorded rectally, and skin temperature was recorded at the tail and the head between the ears at the same time of the day (morning). Immediately after termination, tissues (fat and thyroid mass) were dissected, weighed, placed in Eppendorf tubes and snap frozen by emerging the tube in liquid nitrogen or placed in histology jar and fixed in 4% neutral buffered formalin.

[2] = tested on: bilateral ovariectomized female C57BL/6JRj mice; assay: Calcium excretion and kidney weight in menopause mouse model; format: in vivo; conditions: for kidney weight compared with vehicle (IgG2b): female mice without ovaries; for kidney weight compared with vehicle (IgG2b) / calcium excretion: day 10; for calcium excretion: female mouse model
Procedure: (§1) Bilateral ovariectomized female C57BL/6JRj mice, 8 weeks of age, were included in the study and administered with IgG2b (control) or 1 of 3 test articles (LH-β ab, LHCGR ab or GnRH antagonist) either at study day 1, study day 1 and 5 or once a day for 9 days. The route of administration was through intraperitoneal (i.p.) injection. The study included be 6 groups in total (Table 6); group 1 (female, n=6) was treated i.p. with IgG2b (control) on study day 1 and day 5, group 2 (female, n=3) was treated i.p. with LH-β ab at study day 1, group 3 (female, n=1) was treated i.p. with LH-β AB on study day 1 and day 5, Group 4 (female, n=3) was treated i.p. with LHCGR ab at study day 1, group 5 (female, n=1) was treated i.p. with LHCGR ab on study day 1 and day 5, group 6 (female, n=3) was treated i.p. with GnRH antagonist once a day (q.d.) for 9 days. Blood for preparation of serum was collected prior to dosing on study day 1 and at termination on study day 10. Urine and kidneys were collected on day 10.
Seventeen (17) bilateral ovariectomized C57BL/6JRj female mice 8 weeks of age, were supplied by Janvier Labs France. The ovaries from the female mice were surgically removed by the supplier (see also Table 6). Fourteen (14) C57BL/6JRj male mice were also stratified into the different groups except that no male mice were treated with GnRH antagonist, and the male mice were therefore only stratified into groups 1-5 (see also Table 7).

human kidney tissue = assay: Ex vivo culture of human kidney tissue, qRT-PCR gene expression; format: cell-based
Procedure: Human kidney tissues from 5 adults (4 men, 1 […]) were cultured. All donors underwent partial nephrectomy due to suspected malignant kidney tumors and a pathologist removed tissues outside the malignant area. Kidney specimens were dissected in small pieces 1 mm^3 and cultured for either 3 or 24 hours in a hanging drop ex vivo model.
Gene expression profiling was done by qRT-PCR analyzing levels of calcium transporters SLC12A-1, SLC12A-2, TRPV5 as well as calcium-sensing receptor (CASR). The inventors also measured kidney expression of exon 2-4 and 11 of LHCGR using a primer-sequence previously validated by sequencing of the product from both serum and testis tissue. As calcium transporters are differentially expressed in the different parts of the nephron, all samples were standardized according to the expression of Uromodulin (UMOD), a protein located in the thick ascending limb of the loop of Henle and subsequently to MAP3K7 expressed in the distal convoluted tubules and in addition to being standardized to the housekeeping gene, RPS20. Ethical committee approval: H-17004362. All samples were analyzed with ANOVA with control/baseline as reference value and every p-value presented was adjusted for multiple comparisons with Dunnett's post hoc test.

C57BL/6JRj male mice = assay: Calcium excretion and kidney weight in normal male mice; format: in vivo
Procedure: as §1
Seventeen (17) bilateral ovariectomized C57BL/6JRj female mice 8 weeks of age, were supplied by Janvier Labs France. The ovaries from the female mice were surgically removed by the supplier (see also Table 6). […]

Molecule: CC(=O)N[C@H](Cc1ccc2ccccc2c1)C(=O)N[C@H](Cc1ccc(Cl)cc1)C(=O)N[C@H](Cc1cccnc1)C(=O)N[C@@H](CO)C(=O)N[C@@H](Cc1ccc(O)cc1)C(=O)N[C@H](CCCNC(N)=O)C(=O)N[C@@H](CC(C)C)C(=O)N[C@@H](CCCNC(=N)N)C(=O)N1CCC[C@H]1C(=O)N[C@H](C)C(N)=O [GnRH antagonist, Cetrorelix, reference compound] (Ac-[d2Nal][dPhe(4-Cl)][d3Pal]SY[dCit]LRP[dA]-NH2)
- visceral fat mass ([1]; 10 days): suppressed
- Body weight compared with vehicle [1]: lower
- kidney weight compared with vehicle (IgG2b) [2]: slightly lower
- calcium excretion [2]: suppressed calcium excretion

Molecule: C[C@]12CC[C@H]3[C@@H](CCC4=CC(=O)CC[C@@]43C)[C@@H]1CC[C@@H]2O [testosterone, reference compound]
- expression of LHCGR exon 11 (human kidney tissue; three hours ex vivo culture, 5 out of 5 below detection vs vehicle 3 out of 10): suppressed

B1: LH-β ab: Monoclonal mouse antibody (IgG2B; Kappa) targeting mouse LH beta; variable light chain SEQ ID NO: 5, heavy chain SEQ ID NO: 9 (antibody)
heavy: MEWRIFLFILSGTAGVHSQVQLQQSGPELVKPGTSLKLSCKASGYTFTDYVLTWVKQRTGQGLEWIGEIYPGSGSTSYNEKFRGKATLTADKSSNTAYMQLSSLTSEDSAVYFCAHLYYADYDFSYWGQGTLVTVSAAKTTPPSVYPLAPGCGDTTGSSVTLGCLVKGYFPESVTVTWNSGSLSSSVHTFPALLQSGLYTMSSSVTVPSSTWPSQTVTCSVAHPASSTTVDKKLE
light: MKLPVRLLVLMFWIPVSSSDVLMTQIPLSLVVSLGDQASISCRSSQNIVQSNGNTYLEWYLQKPGQSPKLLIYKVSNRFSGVPDRFSGSGSGTDFTLKISRVEAEDLGVYYCFQGSHVPLTFGAGTKLELKRADAAPTVSIFPPSSEQLTSGGASVVCFLNNFYPKDINVKWKIDGSERQNGVLNSWTDQDSKDSTYSMSST
- subcutaneous fat mass ([1]; 10 days): suppressed
- thyroid mass ([1]; 10 days): lowered
- visceral fat mass ([1]; 10 days): suppressed
- Body weight compared with vehicle [1]: lower
- increase of core temperature relative to baseline ([1]; day 5 and 10): 8%
- change in body weight versus vehicle ([1]; most pronounced in the first 5 days): effective in suppressing the effect of menopause (gonadectomy) on weight induction
- kidney weight compared with vehicle (IgG2b) [2]: slightly lower
- calcium excretion [2]: suppressed calcium excretion
- calcium excretion suppressed ([2]; high dosage, female mice): 70%
- calcium excretion (C57BL/6JRj male mice; all concentrations): reduced calcium excretion
- kidney weight compared with vehicle (IgG2b) (C57BL/6JRj male mice; day 10): slightly lower

B2: PTH: parathyroid hormone, added to kidney tissue culture media at 0.01 pg/mL (protein, UniProt P01270 32-115, looked up)
Parathyroid hormone: SVSEIQLMHNLGKHLNSMERVEWLRKKLQDVHNFVALGAPLAPRDAGSQRPRKKEDNVLVESHEKSLGEADKADVNVLTKAKSQ
modifications: Parathyroid hormone
notes: parathyroid hormone, added to kidney tissue culture media at 0.01 pg/mL
- TRPV5 expression (human kidney tissue; after 24 hours): significantly increased
